The target of experiment [1] is LgBiT Protein (LgBiT subunit of the NanoBiT luciferase; large, truncated fragment of NanoLuc) (Oplophorus gracilirostris). Briefly: split reporter.
Experiment [2] deals with T1, SIRT5 (Homo sapiens, UniProt Q9NXA8).
T1 sequence (Q9NXA8 37-310): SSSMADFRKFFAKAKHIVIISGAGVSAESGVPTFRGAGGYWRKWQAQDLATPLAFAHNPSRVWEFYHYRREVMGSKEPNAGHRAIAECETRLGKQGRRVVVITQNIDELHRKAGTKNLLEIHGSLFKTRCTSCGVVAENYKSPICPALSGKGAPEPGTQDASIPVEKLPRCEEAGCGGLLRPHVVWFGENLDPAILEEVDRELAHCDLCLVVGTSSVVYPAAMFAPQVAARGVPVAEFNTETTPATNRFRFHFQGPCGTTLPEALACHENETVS
Briefly: SIRTify cell-free assay, SIRT5. The following applies: ratio of IC50 values. It counts as biochemical.

Molecule “p86-Succinyl8: H2N-VSGWRLF(KSuc)KIS-OH (peptide)” showed a fold decrease in luminescent signal against unmodified p86 in experiment [1] of 1.7 fold.
In experiment [1], “p86-Acetyl8,9: H2N-VSGWRLF(KAc)(KAc)IS-OH (peptide)” returned a fold decrease in luminescent signal against unmodified p86 of 5.8 fold and a fold reduced affinity compared to p86 of 175 fold.
As for `O=C(O)CCNC(=S)NCCCC[C@H](NS(=O)(=O)c1cccc(F)c1)C(=O)N[C@@H](Cc1c[nH]c2ccccc12)C(=O)NC1CCC1` [SIRT5 Inhibitor I (S5I1)], in experiment [2], the “lower IC50 for SIRT5 deglutarylase compared to desuccinylase activity” value was “approximately 3 fold”.
Take “p86-Succinyl9: H2N-VSGWRLFK(KSuc)IS-OH (peptide)”: in experiment [1], the fold decrease in luminescent signal against unmodified p86 stood at 1.7 fold.
The same measure, in the same setting: to “p86-Acetyl9: H2N-VSGWRLFK(KAc)IS-OH (peptide)” belongs 1.1 fold; to “p86-Succinyl8,9: H2N-VSGWRLF(KSuc)(KSuc)IS-OH (peptide)”, 7.5 fold; to “p86-Acetyl8: H2N-VSGWRLF(KAc)KIS-OH (peptide)”, 1.1 fold.

The record behind these values is article PMC12667410 (Cell chemical biology, 2024).
